Two molecules from PMC12820532 (Nucleic Acids Research, 2026) can be followed below.

The test deals with His-REV7 (human, UniProt Q9UI95 1-211). The experiment in a line: pull-down.
Chain of His-REV7 (Q9UI95 whole entry): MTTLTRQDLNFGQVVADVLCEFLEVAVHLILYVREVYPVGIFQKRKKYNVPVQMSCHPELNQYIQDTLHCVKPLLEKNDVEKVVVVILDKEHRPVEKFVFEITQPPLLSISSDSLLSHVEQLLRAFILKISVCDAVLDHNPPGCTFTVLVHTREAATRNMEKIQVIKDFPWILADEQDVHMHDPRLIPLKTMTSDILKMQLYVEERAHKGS

B1: GST-ATRIP 203–307 (WT) (domain or fragment)
chain: RTKLQTSERANKLAAPSVSHVSPRKNPSVVIKPEACSPQFGKTSFPTKESFSANMSLPHPCQTESGYKPLVGREDSKPHSLRGDSIKQEEAQKSFVDSWRQRSNT
With B1, the binding result is reported as “binds”.

B2: GST-ATRIP 203–348 (domain or fragment)
chain: RTKLQTSERANKLAAPSVSHVSPRKNPSVVIKPEACSPQFGKTSFPTKESFSANMSLPHPCQTESGYKPLVGREDSKPHSLRGDSIKQEEAQKSFVDSWRQRSNTQGSILINLLLKQPLIPGSSLSLCHLLSSSSESPAGTPLQPP
In the case of B2, the binding result is given as “binds”.
